Measured values: patent US20200199241A1 (Chugai, published 2020)

Molecular target: T1, human FcRn (soluble human FcRn complexed with β2-microglobulin) (human, UniProt P61769 21-119, limits assumed)
T1 construct: also called hFcRn
Test: SPR, pH 7.0;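 further: antibodies captured on a Protein L sensor chip with human FcRn injected as analyte, KD calculated from fitted association and dissociation rate constants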

Row | Binder | Kd [µM]
1 | IgG1-F287 (antibody, EU numbering; copies: 2 + 2) heavy: QVQLQESGPGLVKPSETLSLTCAVSGHSISHDHAWSWVRQPPGEGLEWIGFISYSGITNYNPSLQGRVTISRDNSKNTLYLQMNSLRAEDTAVYYCARSLARTTAMDYWGEGTLVTVSSASTKGPSVFPLAPSSKSTSGGTAALGCLVKDYFPEPVTVSWNSGALTSGVHTFPAVLQSSGLYSLSSVVTVPSSSLGTQTYICNVNHKPSNTKVDKKVEPKSCDKTHTCPPCPAPELLGGPSVFLFPPKPKDTLYISRTPEVTCVVVDVSHEDPEVKFNWYVDGVEVHNAKTKPREEQYNSTYRVVSVLTPLHQDWLNGKEYKCKVSNKALPAPIEKTISKAKGQPREPQVYTLPPSRDELTKNQVSLTCLVKGFYPSDIAVAWASNGQPENNYKTTPPVLDSDGSFFLYSKLTVDKSRWQQGNVFSCSVFHEALHYHYTQKSLSLSP light: not shown | 0.1
2 | IgG1-F288 (antibody, EU numbering; copies: 2 + 2) heavy: QVQLQESGPGLVKPSETLSLTCAVSGHSISHDHAWSWVRQPPGEGLEWIGFISYSGITNYNPSLQGRVTISRDNSKNTLYLQMNSLRAEDTAVYYCARSLARTTAMDYWGEGTLVTVSSASTKGPSVFPLAPSSKSTSGGTAALGCLVKDYFPEPVTVSWNSGALTSGVHTFPAVLQSSGLYSLSSVVTVPSSSLGTQTYICNVNHKPSNTKVDKKVEPKSCDKTHTCPPCPAPELLGGPSVFLFPPKPKDTLYISREPEVTCVVVDVSHEDPEVKFNWYVDGVEVHNAKTKPREEQYNSTYRVVSVLTVLHQDWLNGKEYKCKVSNKALPAPIEKTISKAKGQPREPQVYTLPPSRDELTKNQVSLTCLVKGFYPSDIAVEWASNGQPENNYKTTPPVLDSDGSFFLYSKLTVDKSRWQQGNVFSCSVMHEALHYHYTQKSLSLSP light: not shown | 0.19
3 | IgG1-F290 (antibody, EU numbering; copies: 2 + 2) heavy: QVQLQESGPGLVKPSETLSLTCAVSGHSISHDHAWSWVRQPPGEGLEWIGFISYSGITNYNPSLQGRVTISRDNSKNTLYLQMNSLRAEDTAVYYCARSLARTTAMDYWGEGTLVTVSSASTKGPSVFPLAPSSKSTSGGTAALGCLVKDYFPEPVTVSWNSGALTSGVHTFPAVLQSSGLYSLSSVVTVPSSSLGTQTYICNVNHKPSNTKVDKKVEPKSCDKTHTCPPCPAPELLGGPSVFLFPPKPKDTLYISREPEVTCVVVDVSHEDPEVKFNWYVDGVEVHNAKTKPREEQYNSTYRVVSVLTVLHQDWLNGKEYKCKVSNKALPAPIEKTISKAKGQPREPQVYTLPPSRDELTKNQVSLTCLVKGFYPSDIAVEWASNGQPENNYKTTPPVLDSDGSFFLYSKLTVDKSRWQQGNVFSCSVYHEALHYHYTQKSLSLSP light: not shown | 0.46
4 | IgG1-F296 (antibody, EU numbering; copies: 2 + 2) heavy: QVQLQESGPGLVKPSETLSLTCAVSGHSISHDHAWSWVRQPPGEGLEWIGFISYSGITNYNPSLQGRVTISRDNSKNTLYLQMNSLRAEDTAVYYCARSLARTTAMDYWGEGTLVTVSSASTKGPSVFPLAPSSKSTSGGTAALGCLVKDYFPEPVTVSWNSGALTSGVHTFPAVLQSSGLYSLSSVVTVPSSSLGTQTYICNVNHKPSNTKVDKKVEPKSCDKTHTCPPCPAPELLGGPSVFLFPPKPKDTLYISRTPEVTCVVVDVSHEDPEVKFNWYVDGVEVHNAKTKPREEQYNSTYRVVSVLTVLHADWLNGKEYKCKVSNKALPAPIEKTISKAKGQPREPQVYTLPPSRDELTKNQVSLTCLVKGFYPSDIAVEWESNGQPENNYKTTPPVLDSDGSFFLYSKLTVDKSRWQQGNVFSCSVYHEALHYHYTQKSLSLSP light: not shown | 0.49
5 | IgG1-F298 (antibody, EU numbering; copies: 2 + 2) heavy: QVQLQESGPGLVKPSETLSLTCAVSGHSISHDHAWSWVRQPPGEGLEWIGFISYSGITNYNPSLQGRVTISRDNSKNTLYLQMNSLRAEDTAVYYCARSLARTTAMDYWGEGTLVTVSSASTKGPSVFPLAPSSKSTSGGTAALGCLVKDYFPEPVTVSWNSGALTSGVHTFPAVLQSSGLYSLSSVVTVPSSSLGTQTYICNVNHKPSNTKVDKKVEPKSCDKTHTCPPCPAPELLGGPSVFLFPPKPKDTLYISRTPEVTCVVVDVSHEDPEVKFNWYVDGVEVHNAKTKPREEQYNSTYRVVSVLTVLHAAWLNGKEYKCKVSNKALPAPIEKTISKAKGQPREPQVYTLPPSRDELTKNQVSLTCLVKGFYPSDIAVEWESNGQPENNYKTTPPVLDSDGSFFLYSKLTVDKSRWQQGNVFSCSVYHEALHYHYTQKSLSLSP light: not shown | 0.48
6 | IgG1-F289 (antibody, EU numbering; copies: 2 + 2) heavy: QVQLQESGPGLVKPSETLSLTCAVSGHSISHDHAWSWVRQPPGEGLEWIGFISYSGITNYNPSLQGRVTISRDNSKNTLYLQMNSLRAEDTAVYYCARSLARTTAMDYWGEGTLVTVSSASTKGPSVFPLAPSSKSTSGGTAALGCLVKDYFPEPVTVSWNSGALTSGVHTFPAVLQSSGLYSLSSVVTVPSSSLGTQTYICNVNHKPSNTKVDKKVEPKSCDKTHTCPPCPAPELLGGPSVFLFPPKPKDTLYISREPEVTCVVVDVSHEDPEVKFNWYVDGVEVHNAKTKPREEQYNSTYRVVSVLTVLHQDWLNGKEYKCKVSNKALPAPIEKTISKAKGQPREPQVYTLPPSRDELTKNQVSLTCLVKGFYPSDIAVEWESNGQPENNYKTTPPVLDSDGSFFLYSKLTVDKSRWQQGNVFSCSVYHEALHYHYTQKSLSLSP light: not shown | 0.48
7 | IgG1-F297 (antibody, EU numbering; copies: 2 + 2) heavy: QVQLQESGPGLVKPSETLSLTCAVSGHSISHDHAWSWVRQPPGEGLEWIGFISYSGITNYNPSLQGRVTISRDNSKNTLYLQMNSLRAEDTAVYYCARSLARTTAMDYWGEGTLVTVSSASTKGPSVFPLAPSSKSTSGGTAALGCLVKDYFPEPVTVSWNSGALTSGVHTFPAVLQSSGLYSLSSVVTVPSSSLGTQTYICNVNHKPSNTKVDKKVEPKSCDKTHTCPPCPAPELLGGPSVFLFPPKPKDTLYISRTPEVTCVVVDVSHEDPEVKFNWYVDGVEVHNAKTKPREEQYNSTYRVVSVLTVLHQAWLNGKEYKCKVSNKALPAPIEKTISKAKGQPREPQVYTLPPSRDELTKNQVSLTCLVKGFYPSDIAVEWESNGQPENNYKTTPPVLDSDGSFFLYSKLTVDKSRWQQGNVFSCSVYHEALHYHYTQKSLSLSP light: not shown | 0.51
8 | IgG1-F295 (antibody, EU numbering; copies: 2 + 2) heavy: QVQLQESGPGLVKPSETLSLTCAVSGHSISHDHAWSWVRQPPGEGLEWIGFISYSGITNYNPSLQGRVTISRDNSKNTLYLQMNSLRAEDTAVYYCARSLARTTAMDYWGEGTLVTVSSASTKGPSVFPLAPSSKSTSGGTAALGCLVKDYFPEPVTVSWNSGALTSGVHTFPAVLQSSGLYSLSSVVTVPSSSLGTQTYICNVNHKPSNTKVDKKVEPKSCDKTHTCPPCPAPELLGGPKVFLFPPKPKDTLYISRTPEVTCVVVDVSHEDPEVKFNWYVDGVEVHNAKTKPREEQYNSTYRVVSVLTVLHQDWLNGKEYKCKVSNKALPAPIEKTISKAKGQPREPQVYTLPPSRDELTKNQVSLTCLVKGFYPSDIAVAWASNGQPENNYKTTPPVLDSDGSFFLYSKLTVDKSRWQQGNVFSCSVFHEALHYHYTQKSLSLSP light: not shown | 0.68
9 | IgG1-F294 (antibody, EU numbering; copies: 2 + 2) heavy: QVQLQESGPGLVKPSETLSLTCAVSGHSISHDHAWSWVRQPPGEGLEWIGFISYSGITNYNPSLQGRVTISRDNSKNTLYLQMNSLRAEDTAVYYCARSLARTTAMDYWGEGTLVTVSSASTKGPSVFPLAPSSKSTSGGTAALGCLVKDYFPEPVTVSWNSGALTSGVHTFPAVLQSSGLYSLSSVVTVPSSSLGTQTYICNVNHKPSNTKVDKKVEPKSCDKTHTCPPCPAPELLGGPKVFLFPPKPKDTLYISRTPEVTCVVVDVSHEDPEVKFNWYVDGVEVHNAKTKPREEQYNSTYRVVSVLTPLHQDWLNGKEYKCKVSNKALPAPIEKTISKAKGQPREPQVYTLPPSRDELTKNQVSLTCLVKGFYPSDIAVEWESNGQPENNYKTTPPVLDSDGSFFLYSKLTVDKSRWQQGNVFSCSVFHEALHYHYTQKSLSLSP light: not shown | 0.11

Stronger by Kd, values ahead:

Row | Kd [µM] | Binder
10 | 0.083 | IgG1-F300 (antibody, EU numbering; copies: 2 + 2) heavy: QVQLQESGPGLVKPSETLSLTCAVSGHSISHDHAWSWVRQPPGEGLEWIGFISYSGITNYNPSLQGRVTISRDNSKNTLYLQMNSLRAEDTAVYYCARSLARTTAMDYWGEGTLVTVSSASTKGPSVFPLAPSSKSTSGGTAALGCLVKDYFPEPVTVSWNSGALTSGVHTFPAVLQSSGLYSLSSVVTVPSSSLGTQTYICNVNHKPSNTKVDKKVEPKSCDKTHTCPPCPAPELLGGPKVFLFPPKPKDTLYISRTPEVTCVVVDVSHEDPEVKFNWYVDGVEVHNAKTKPREEQYNSTYRVVSVLTPLHQAWLNGKEYKCKVSNKALPAPIEKTISKAKGQPREPQVYTLPPSRDELTKNQVSLTCLVKGFYPSDIAVEWESNGQPENNYKTTPPVLDSDGSFFLYSKLTVDKSRWQQGNVFSCSVYHEALHYHYTQKSLSLSP light: not shown
11 | 0.094 | IgG1-F299 (antibody, EU numbering; copies: 2 + 2) heavy: QVQLQESGPGLVKPSETLSLTCAVSGHSISHDHAWSWVRQPPGEGLEWIGFISYSGITNYNPSLQGRVTISRDNSKNTLYLQMNSLRAEDTAVYYCARSLARTTAMDYWGEGTLVTVSSASTKGPSVFPLAPSSKSTSGGTAALGCLVKDYFPEPVTVSWNSGALTSGVHTFPAVLQSSGLYSLSSVVTVPSSSLGTQTYICNVNHKPSNTKVDKKVEPKSCDKTHTCPPCPAPELLGGPKVFLFPPKPKDTLYISRTPEVTCVVVDVSHEDPEVKFNWYVDGVEVHNAKTKPREEQYNSTYRVVSVLTPLHADWLNGKEYKCKVSNKALPAPIEKTISKAKGQPREPQVYTLPPSRDELTKNQVSLTCLVKGFYPSDIAVEWESNGQPENNYKTTPPVLDSDGSFFLYSKLTVDKSRWQQGNVFSCSVYHEALHYHYTQKSLSLSP light: not shown
12 | 0.023 | IgG1-F292 (antibody, EU numbering; copies: 2 + 2) heavy: QVQLQESGPGLVKPSETLSLTCAVSGHSISHDHAWSWVRQPPGEGLEWIGFISYSGITNYNPSLQGRVTISRDNSKNTLYLQMNSLRAEDTAVYYCARSLARTTAMDYWGEGTLVTVSSASTKGPSVFPLAPSSKSTSGGTAALGCLVKDYFPEPVTVSWNSGALTSGVHTFPAVLQSSGLYSLSSVVTVPSSSLGTQTYICNVNHKPSNTKVDKKVEPKSCDKTHTCPPCPAPELLGGPKVFLFPPKPKDTLYISRTPEVTCVVVDVSHEDPEVKFNWYVDGVEVHNAKTKPREEQYNSTYRVVSVLTPLHQDWLNGKEYKCKVSNKALPAPIEKTISKAKGQPREPQVYTLPPSRDELTKNQVSLTCLVKGFYPSDIAVEWASNGQPENNYKTTPPVLDSDGSFFLYSKLTVDKSRWQQGNVFSCSVIHEALHYHYTQKSLSLSP light: not shown
13 | 0.053 | IgG1-F293 (antibody, EU numbering; copies: 2 + 2) heavy: QVQLQESGPGLVKPSETLSLTCAVSGHSISHDHAWSWVRQPPGEGLEWIGFISYSGITNYNPSLQGRVTISRDNSKNTLYLQMNSLRAEDTAVYYCARSLARTTAMDYWGEGTLVTVSSASTKGPSVFPLAPSSKSTSGGTAALGCLVKDYFPEPVTVSWNSGALTSGVHTFPAVLQSSGLYSLSSVVTVPSSSLGTQTYICNVNHKPSNTKVDKKVEPKSCDKTHTCPPCPAPELLGGPSVFLFPPKPKDTLYISRTPEVTCVVVDVSHEDPEVKFNWYVDGVEVHNAKTKPREEQYNSTYRVVSVLTPLHQDWLNGKEYKCKVSNKALPAPIEKTISKAKGQPREPQVYTLPPSRDELTKNQVSLTCLVKGFYPSDIAVAWASNGQPENNYKTTPPVLDSDGSFFLYSKLTVDKSRWQQGNVFSCSVIHEALHYHYTQKSLSLSP light: not shown
